Holding throughout (assay): purified protein
Substrate in data set [1]: O=C(O)C[C@H](O)C(=O)O
As to conditions: malate oxidation.

Substrate in data set [2]: NC(=O)c1ccc[n+]([C@@H]2O[C@H](COP(=O)(O)OP(=O)(O)OC[C@H]3O[C@@H](n4cnc5c(N)ncnc54)[C@H](OP(=O)(O)O)[C@@H]3O)[C@@H](O)[C@H]2O)c1
The format is biochemical, Nostoc sp. PCC 7120 = FACHB-418. As to conditions: 3 mM malate, 100 mM NH4Cl, 0.1 mM MnCl2, pH 8.8, 52°C, malate oxidation, varied: cofactor.

Substrate in data set [3]: NC(=O)C1=CN([C@@H]2O[C@H](COP(=O)(O)OP(=O)(O)OC[C@H]3O[C@@H](n4cnc5c(N)ncnc54)[C@H](OP(=O)(O)O)[C@@H]3O)[C@@H](O)[C@H]2O)C=CC1
The format is biochemical, Nostoc sp. PCC 7120 = FACHB-418. The following applies: 30 mM pyruvate, 100 mM NH4Cl, 0.1 mM MnCl2, 50 mM KHCO3, pH 8.8, 52°C, reductive reaction, varied: cofactor.

Substrate in data set [4]: CC(=O)C(=O)O
In kind it is biochemical, Nostoc sp. PCC 7120 = FACHB-418. The following applies: 0.1 mM NADPH, 100 mM NH4Cl, 0.1 mM MnCl2, 50 mM KHCO3, pH 8.8, 52°C, reductive reaction.

Substrate in data set [5]: NC(=O)c1ccc[n+]([C@@H]2O[C@H](COP(=O)(O)OP(=O)(O)OC[C@H]3O[C@@H](n4cnc5c(N)ncnc54)[C@H](OP(=O)(O)O)[C@@H]3O)[C@@H](O)[C@H]2O)c1
In kind it is biochemical, Synechocystis sp. PCC 6803. As to conditions: 3 mM malate, 100 mM NH4Cl, 0.5 mM MnCl2, pH 8.3, 50°C, malate oxidation, varied: cofactor.

Substrate in data set [6]: O=C(O)CC(=O)C(=O)O
The format is biochemical, Nostoc sp. PCC 7120 = FACHB-418. The following applies: 0.1 mM NADH, pH 9.0, 50°C, reductive reaction.

Substrate in data set [7]: NC(=O)C1=CN([C@@H]2O[C@H](COP(=O)(O)OP(=O)(O)OC[C@H]3O[C@@H](n4cnc5c(N)ncnc54)[C@H](O)[C@@H]3O)[C@@H](O)[C@H]2O)C=CC1
In kind it is biochemical, Nostoc sp. PCC 7120 = FACHB-418. As to conditions: 0.1 mM oxaloacetate, pH 9.0, 50°C, reductive reaction, varied: cofactor.

Substrate in data set [8]: NC(=O)c1ccc[n+]([C@@H]2O[C@H](COP(=O)(O)OP(=O)(O)OC[C@H]3O[C@@H](n4cnc5c(N)ncnc54)[C@H](O)[C@@H]3O)[C@@H](O)[C@H]2O)c1
The format is biochemical, Nostoc sp. PCC 7120 = FACHB-418. As to conditions: 5 mM malate, pH 9.0, 50°C, malate oxidation, varied: cofactor.

Substrate in data set [9]: O=C(O)CC(=O)C(=O)O
The format is biochemical, Synechocystis sp. PCC 6803. As to conditions: 0.1 mM NADH, pH 8.0, 50°C, reductive reaction.

Substrate in data set [10]: NC(=O)C1=CN([C@@H]2O[C@H](COP(=O)(O)OP(=O)(O)OC[C@H]3O[C@@H](n4cnc5c(N)ncnc54)[C@H](O)[C@@H]3O)[C@@H](O)[C@H]2O)C=CC1
The format is biochemical, Synechocystis sp. PCC 6803. The following applies: 0.5 mM oxaloacetate, pH 8.0, 50°C, reductive reaction, varied: cofactor.

Substrate in data set [11]: NC(=O)c1ccc[n+]([C@@H]2O[C@H](COP(=O)(O)OP(=O)(O)OC[C@H]3O[C@@H](n4cnc5c(N)ncnc54)[C@H](O)[C@@H]3O)[C@@H](O)[C@H]2O)c1
The format is biochemical, Synechocystis sp. PCC 6803. The following applies: 4 mM malate, pH 8.0, 50°C, malate oxidation, varied: cofactor.

Substrate in data set [12]: O=C(O)CC(=O)C(=O)O
In kind it is biochemical, Limnospira platensis. As to conditions: 0.1 mM NADH, pH 8.5, 50°C, reductive reaction.

Substrate in data set [13]: NC(=O)C1=CN([C@@H]2O[C@H](COP(=O)(O)OP(=O)(O)OC[C@H]3O[C@@H](n4cnc5c(N)ncnc54)[C@H](O)[C@@H]3O)[C@@H](O)[C@H]2O)C=CC1
In kind it is biochemical, Limnospira platensis. As to conditions: 0.5 mM oxaloacetate, pH 8.5, 50°C, reductive reaction, varied: cofactor.

Substrate in data set [14]: NC(=O)c1ccc[n+]([C@@H]2O[C@H](COP(=O)(O)OP(=O)(O)OC[C@H]3O[C@@H](n4cnc5c(N)ncnc54)[C@H](O)[C@@H]3O)[C@@H](O)[C@H]2O)c1
The format is biochemical, Limnospira platensis. The following applies: 1 mM malate, pH 8.5, 50°C, malate oxidation, varied: cofactor.

Where [15] appears, read: 0.5 mM NADP+, 100 mM NH4Cl, 0.1 mM MnCl2, pH 8.8, 52°C, pH 8.8, 52.0 °C.
Where [16] appears, read: 0.5 mM NADP+, 100 mM NH4Cl, 0.5 mM MnCl2, pH 8.3, 50°C, pH 8.3, 50.0 °C.
Where [17] appears, read: 8 mM NAD+, pH 9.0, 50°C, pH 9.0, 50.0 °C.
[18] abbreviates: 8 mM NAD+, pH 8.0, 50°C, pH 8.0, 50.0 °C.
The mark [19] stands for this setting: 8 mM NAD+, pH 8.5, 50°C, pH 8.5, 50.0 °C.

B1: NoME (Nostoc sp. PCC 7120 = FACHB-418) (protein)
chain: MADLTPNSSFSVTLRLQIPNRVGMLASITQAIASSGGNLGQIDLIEQTRQVSLRDLTVDAASTEHAETIVQAVKAIPDIKLVSVYDRTFNLHRGGKISITSRIPLKSVSDLAMAYTPGVGRVCTAIAQDPSQVYNLTIKQNTVAIVTDGSAVLGLGNLGPHAALPVMEGKAMLFKEFAGLDAFPICLATQDTEEIIQAVKNIAPVFGGVNLEDIAAPRCFEIEKRLRDELDIPVFHDDQHGTAIVTLAALFNSLKLVQKSLADIRIVINGAGAAGVAIARLLRKAGAEKIWMCDSKGIISTTRTDLNEEKQEFAVKAQGTLAGAVQGADVFIGVSAPGVLTPEMVKSMAKDAIVFAMANPIPEIQPELISKDVAVIATGRSDYPNQINNVLAFPGVFRGALDCRAQTITTTMYLEAASAIASLVNPSDLSREHIIPSVFDERVVTAVAAAVQRAAREEGIARG
notes: full length, GST-tagged (pGEX6P-1), tag kept, E. coli BL21(DE3)
Consider B1, for which the K0.5 in “purified protein [1]” (setting [15]) amounted to 0.41 ± 0.02 mM; in “purified protein [2]” it was 0.014 ± 0.004 mM; in “purified protein [3]”, 0.0074 ± 0.001 mM; in “purified protein [4]”, 6.55 ± 0.38 mM. Further, the kcat – broadly, the number of substrate molecules converted per active site and unit of time at saturation – in the data set “purified protein [1]” (setting [15]) came out at 30.3 s⁻¹; in the data set “purified protein [2]”, 33.4 ± 3.2 s⁻¹; in “purified protein [3]”, 0.85 ± 0.03 s⁻¹; in “purified protein [4]”, 0.79 ± 0.03 s⁻¹. For the same protein, the kcat/Km (commonly the second-order rate constant that governs catalysis at low substrate concentration) in the data set “purified protein [1]” (setting [15]) was found to be 75000 M⁻¹ s⁻¹; in the data set “purified protein [2]”, 2.53e+06 ± 436000 M⁻¹ s⁻¹; in the data set “purified protein [3]” it was 116000 ± 10000 M⁻¹ s⁻¹; in the data set “purified protein [4]” it was 120 ± 3 M⁻¹ s⁻¹.

B2: SyME (Synechocystis sp. PCC 6803 substr. Kazusa) (protein)
chain: MVSLTPNPSYSVSLLLELPNHAGTLASVTQAIADAGGSFGQISLIESNLKLTRREIAVDASSSEHAEKIIGAVKALDNVKLLKVSDRTFDLHRQGKISVVSRIPLTSQSDLAMAYTPGVGRICRAIAEDPEKVYSLTIKSNTVAVVTDGSAVLGLGNLGPEAALPVMEGKAMLFKEFAQLDAFPICLDTQDTEEIIRTVKAIAPVFGGVNLEDIAAPRCFEIEARLKKELNIPVFHDDQHGTAIVTLAALLNALKFVGKAMAAVRIVINGAGAAGLAIAELLKESGATDIWICDSKGIVGKHRTDLNSKKQSFAVDAEGTLADAMAGADVFLGVSAPGVVTKEMVQSMAKDPIVFAMANPIPEIQPELIQEDAAVIATGRSDYPNQINNVLAFPGVFRGAIDCRASIITTTMCIEAAKAIASLVHSNTLDSEHIIPSVFDNRVATTVASAVQLAARNEGVAGQ
notes: full length, His-tagged (pQE80L), E. coli BL21(DE3), synthesized gene
As to B2, in the data set “purified protein [5]”, the K0.5 is on record as 0.015 ± 0.001 mM, the kcat was 55.7 ± 3.3 s⁻¹ and the kcat/Km was determined as 3.689e+06 ± 23000 M⁻¹ s⁻¹. In addition, in “purified protein [1]” (setting [16]), the K0.5 amounted to 0.46 ± 0.06 mM, the kcat was 77.2 s⁻¹ and the kcat/Km came out at 169000 M⁻¹ s⁻¹.

B3: NoMDH (Nostoc sp. PCC 7120 = FACHB-418) (protein)
chain: MFSSPDSPILHCLPRVAIIGAGRVGSTLAQRIAEKNLADVVLLDIVEGIPQGLALDLLEARGIELHNRQIIGTNNYADTSGSQIVVITAGFPRKPGMSRDDLLRTNAKIVIEAAKQAIAYSPYAIFIVVTNPLDVMTYLAWEATGLPRNRIMGMAGVLDSARFETFIALELGVLPADVKAMVLGSHGDLMVPLSRYATVNGIPITQLLDAVTIERLVERTRNGGAEIVELMQTGGAFFAPASATSLMVESILLNQSRLLPVSIYLQGEYDLKDVVIGVPCRLGLNGIESVIELNLSDSEREALHISAKSVQKNIERWRSLQNS
notes: full length, GST-tagged (pGEX6P-1), tag kept, E. coli BL21(DE3), 10°C expression
For B3, the K0.5 in “purified protein [1]” (setting [17]) is 1.88 ± 0.56 mM; in the data set “purified protein [6]” it was 0.026 ± 0.002 mM; in the data set “purified protein [7]”, 0.0093 ± 0.0001 mM; in the data set “purified protein [8]”, 8.45 ± 1.95 mM. Also, the kcat is 3.5 s⁻¹ in “purified protein [1]” (setting [17]), 1.1 ± 0.03 s⁻¹ in the data set “purified protein [6]”, 1.3 ± 0.1 s⁻¹ in “purified protein [7]” and 6.3 ± 0.5 s⁻¹ in the data set “purified protein [8]”. In addition, the kcat/Km in the data set “purified protein [1]” (setting [17]) is 2000 M⁻¹ s⁻¹; in the data set “purified protein [6]” it was 42000 ± 2000 M⁻¹ s⁻¹; in the data set “purified protein [7]” it was 142000 ± 8000 M⁻¹ s⁻¹; in the data set “purified protein [8]”, 770 ± 100 M⁻¹ s⁻¹.

B4: SyMDH (Synechocystis sp. PCC 6803 substr. Kazusa) (protein)
chain: MNILEYAPIACQSWQVTVVGAGNVGRTLAQRLVQQNVANVVLLDIVPGLPQGIALDLMAAQSVEEYDSKIIGTNEYEATAGSDVVVITAGLPRRPGMSRDDLLGKNANIVAQGAREALRYSPNAILIVVTNPLDVMTYLAWKVTGLPSQRVMGMAGVLDSARLKAFIAMKLGACPSDINTLVLGGHGDLMLPLPRYCTVSGVPITELIPPQTIEELVERTRNGGAEIAALLQTGTAYYAPASSAAVMVESILRNQSRILPAATYLDGAYGLKDIFLGVPCRLGCRGVEDILEVQLTPEEKAALHLSAEAVRLNIDVALAMVSDG
notes: as for B2
In the case of B4, the K0.5 in “purified protein [9]” was found to be 0.11 ± 0.002 mM; in “purified protein [10]”, 0.018 ± 0.002 mM; in “purified protein [11]”, 1.34 ± 0.30 mM; in the data set “purified protein [1]” (setting [18]), 1.61 ± 0.37 mM. Moreover, the kcat in the data set “purified protein [9]” was found to be 4 ± 0.04 s⁻¹; in “purified protein [10]” it was 6.6 ± 0.5 s⁻¹; in “purified protein [11]”, 1.8 ± 0.1 s⁻¹; in “purified protein [1]” (setting [18]), 1 s⁻¹. Moreover, the kcat/Km worked out at 36000 ± 1000 M⁻¹ s⁻¹ in “purified protein [9]”, 364000 ± 19000 M⁻¹ s⁻¹ in the data set “purified protein [10]”, 1400 ± 200 M⁻¹ s⁻¹ in “purified protein [11]” and 640 M⁻¹ s⁻¹ in the data set “purified protein [1]” (setting [18]).

B5: ArMDH (Limnospira platensis NIES-46) (protein)
chain: MQMASSMFFPPSCHPTQVSIIGAGKVGGTLAQRIAESNVAHVVLLDVVEGLPQGVALDLMQAGSVEGHDRKILGTNDYADTAGSDVVVITAGRPRTPGMNRNDLIETNAPIVARAVTNAIASSPNAVIIIVTNPLDVMTYIAWQVSQIEPFRIMGMAGVLDSARFQAFIATELNVSVADVNATVMGSHGDLMVPLPRYSTVNGIPITELMDTETINRLIARTRNGGAEIVGLLKTGGAYYAPASSVRTMVESILLNRRRLLPTSAYLKGEYGMKDIFLGVPCWLGCRGVEAVLELNLTDNEREALNSCAQSVREGIEKADAVLAATAAV
notes: as for B1
Turning to B5, the K0.5 is 0.034 ± 0.002 mM in the data set “purified protein [1]” (setting [19]), 0.041 ± 0.001 mM in “purified protein [12]”, 0.0085 ± 0.0025 mM in the data set “purified protein [13]” and 0.30 ± 0.02 mM in the data set “purified protein [14]”. Moreover, the turnover number (kcat) amounted to 0.25 s⁻¹ in the data set “purified protein [1]” (setting [19]), 1.4 ± 0.03 s⁻¹ in the data set “purified protein [12]”, 1.7 ± 0.1 s⁻¹ in the data set “purified protein [13]” and 0.5 ± 0.01 s⁻¹ in the data set “purified protein [14]”. Also, the kcat/Km in the data set “purified protein [1]” (setting [19]) came to 7300 M⁻¹ s⁻¹; in “purified protein [12]” it was 34000 ± 400 M⁻¹ s⁻¹; in “purified protein [13]”, 214000 ± 50000 M⁻¹ s⁻¹; in “purified protein [14]”, 1700 ± 100 M⁻¹ s⁻¹.

For the origin of these results see PMC9765476, “Malic Enzyme, not Malate Dehydrogenase, Mainly Oxidizes Malate That Originates from the Tricarboxylic Acid Cycle in Cyanobacteria” (mBio, 2022).
